According to PMC6727212 (ACS Chemical Neuroscience, 2019):
Numbering of substitutions follows the chain as printed. Names and notes keep the numbering of the source. Values joined by “and” are separate entries in the source; they are usually repeats but may differ in a detail not shown here. Identical values can stand only once.

B1: human stefin B P74S (natural protein, UniProt P04080 1-98, looked up)
chain: MMSGAPSATQPATAETQHIADQVRSQLEEKENKKFPVFKAVSFKSQVVAGTNYFIKVHVGDEDFVHLRVFQSLSHENKPLTLSNYQTNKAKHDELTYF
B2: recombinant human stefin B wild-type (C3S) (natural protein, UniProt P04080 1-98, looked up)
chain: B1 chain with S74P
B3: human stefin B P11S (natural protein, UniProt P04080 1-98, looked up)
chain: B1 chain with P11S, S74P
B4: human stefin B P79S (natural protein, UniProt P04080 1-98, looked up)
chain: B1 chain with S74P, P79S
B5: human stefin B P11S P74S (natural protein, UniProt P04080 1-98, looked up)
chain: B1 chain with P11S
B6: human stefin B P6L P74S (natural protein, UniProt P04080 1-98, looked up)
chain: B1 chain with P6L
B7: human stefin B P6L (natural protein, UniProt P04080 1-98, looked up)
chain: B1 chain with P6L, S74P
B8: human stefin B P74S P79S (natural protein, UniProt P04080 1-98, looked up)
chain: B1 chain with P79S
B9: human stefin B P36D (natural protein, UniProt P04080 1-98, looked up)
chain: B1 chain with P36D, S74P

Molecular target: the molecule itself
Assay: SEC; Superdex 75 (10 x 300 mm) on FPLC, room temperature, 0.5 mL/min, 500 uL of about 1 mg/mL protein; 10 mM phosphate, 0.15 M NaCl, pH 7.5 (legend and results; the methods say pH 7.0); equilibrium oligomeric state, stB wt as standard

Row | Protein | binding result
1 | B1 | binds

Molecular target: the molecule itself
Assay: as above
Remark: another data set of the same source

Row | Protein | stoichiometry N | binding result
2 | B2 | 2 | 
3 | B3 |  | binds
4 | B4 | 2 and 4 | 
5 | B5 | 2 | 
6 | B6 | 2 | 
7 | B7 |  | binds
8 | B8 | 2 | 
9 | B9 |  | binds
